Measurements as given in paper PMC6113619.

Target: T1, QscR (Pseudomonas aeruginosa PAO1?) (UniProt G3XD77)
T1 sequence: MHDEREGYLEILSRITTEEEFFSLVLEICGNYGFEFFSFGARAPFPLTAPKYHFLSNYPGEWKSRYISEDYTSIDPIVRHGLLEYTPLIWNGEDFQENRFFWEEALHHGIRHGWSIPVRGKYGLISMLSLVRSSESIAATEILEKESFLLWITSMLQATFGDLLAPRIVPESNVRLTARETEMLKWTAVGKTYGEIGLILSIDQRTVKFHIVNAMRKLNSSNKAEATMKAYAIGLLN
Test: EMSA
Conditions: EMSA: 40 ng probe, 0-100 ng QscR in 10 ul; 20 mM Tris pH 7.5, 50 mM KCl, 10% glycerol, 1 mM DTT, 20 uM 3OC12-HSL; 20 min room temperature; 5% native gel at …

Sequence	binding
CTCTCGTGTGAAGCCATTGCTCTGATCTTTTCGGACGTTTCTTCGAGCCTAGCAAGGGTCCGGGTTCACCGAAATCTATCTCATTTGCTAGTTATAAAATTATGAAATTTGCATAAATTCTTCAGCTTCCTATTTGGAGGAAGTGAAGATGATCGTACAAATTGGTCGGCGCGAAGAGTTCGATAAAAAACTGCTGGGCGAGATGCACAAGTTGCGTGCTCAAGTGTTC (double strand) [lasI promoter PCR fragment]	no binding
GCTTCACCGAGCAGAACTCCGGGCTGATCTACCGCGGGCAATCAGGCGGAATGAACGAAGCGTTCTCCGACATGGCCGGCGAGGCTGCCGAGTTCTATATGCGCGGCAAGAACGACTTCCTGATCGGCTACGACATCAAGAAGGGCAGCGGTGCGCTGCGCTACATGGACCAGCCCAGCC (double strand) [lasB promoter PCR fragment]	no binding
